The record followed here is patent US20250011363A1, “OPTIMIZED SHORTENED PEPTIDE THAT BINDS TO ACETYLCHOLINE RECEPTOR, AND USE THEREOF” (SKINMED CO., LTD., priority 2021, published 2025).

The target of this assay is acetylcholine receptor. In words: SPR, AchR immobilized on CM5 chip, peptide at 10 uM.

As for KRNTWK [6mer-1-838], the Binding affinity (RU) was 17 RU.

Turning to KKPMNR [6mer-1-844], the Binding affinity (RU) was found to be 28 RU.

KRMWFK [6mer-1-856] gave a Binding affinity (RU) of 30 RU. The same measure for KRASVK [6mer-1-852]: 19 RU. The same measure for RKICNK [6mer-1-840]: 12 RU; for RRNPEK [6mer-1-850]: 29 RU; for RKDAEK [6mer-1-846]: 28 RU. As to KKYNHK [6mer-1-847], the Binding affinity (RU) worked out at 20 RU. RRFANK [6mer-1-842] came in with a Binding affinity (RU) of 11 RU.

Regarding RRYKNR [6mer-1-833], the Binding affinity (RU) is 19 RU. Molecule RRCMIK [6mer-1-836] came in with a Binding affinity (RU) of 22 RU. Turning to KKEAVR [6mer-1-854], the Binding affinity (RU) is 16 RU. On to RKTMFK [6mer-1-848], for which the Binding affinity (RU) was found to be 19 RU.

Turning to KRNTIR [6mer-1-834], the Binding affinity (RU) stood at 17 RU.

In turn, KKIDKK [6mer-1-845] returned a Binding affinity (RU) of 23 RU. The same measure for KRTADK [6mer-1-835]: 26 RU; for KRPAFK [6mer-1-857]: 14 RU. For KKKTIK [6mer-1-843] the value was 28 RU.

With RRYMEK [6mer-1-851], the Binding affinity (RU) came out at 30 RU. For KRCNGR [6mer-1-853] the value was 30 RU.

Turning to KKDAPR [6mer-1-841], the Binding affinity (RU) came to 30 RU.

With KKFNWK [6mer-1-849], the Binding affinity (RU) came out at 21 RU. KRNWAK [6mer-1-839] gave a Binding affinity (RU) of 29 RU.

Molecule KRDHAK [6mer-1-837] had a Binding affinity (RU) of 19 RU.

The molecule RKCDVR [6mer-1-855] gave a Binding affinity (RU) of 15 RU. KKNPWK [6mer-1-831] returned a Binding affinity (RU) of 15 RU. For RKYWGK [6mer-1-832] the value was 12 RU; for KKKHKR [6mer-1-858], 27 RU.
